Experimental data from paper PMC4553633, “RA Acts in a Coherent Feed-Forward Mechanism with Tbx5 to Control Limb Bud Induction and Initiation”.

Target: T1, flag-RARα (mRARα);myc-RXRα (mRXRα) (Mus musculus;Mus musculus, UniProt P11416;P28700 1-462;1-467, |)
T1 sequence 1: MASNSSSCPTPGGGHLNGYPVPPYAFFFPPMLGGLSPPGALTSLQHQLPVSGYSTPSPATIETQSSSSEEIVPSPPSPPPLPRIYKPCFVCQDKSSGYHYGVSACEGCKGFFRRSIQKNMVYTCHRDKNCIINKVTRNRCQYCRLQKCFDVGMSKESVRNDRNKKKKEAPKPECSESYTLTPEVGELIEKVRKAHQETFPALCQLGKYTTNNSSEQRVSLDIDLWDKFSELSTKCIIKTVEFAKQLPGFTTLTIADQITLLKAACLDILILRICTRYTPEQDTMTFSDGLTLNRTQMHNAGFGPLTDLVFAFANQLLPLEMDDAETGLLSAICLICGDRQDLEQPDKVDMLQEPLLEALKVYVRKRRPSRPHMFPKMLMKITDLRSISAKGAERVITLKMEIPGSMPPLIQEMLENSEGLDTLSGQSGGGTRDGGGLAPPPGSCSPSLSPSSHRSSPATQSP
T1 sequence 2: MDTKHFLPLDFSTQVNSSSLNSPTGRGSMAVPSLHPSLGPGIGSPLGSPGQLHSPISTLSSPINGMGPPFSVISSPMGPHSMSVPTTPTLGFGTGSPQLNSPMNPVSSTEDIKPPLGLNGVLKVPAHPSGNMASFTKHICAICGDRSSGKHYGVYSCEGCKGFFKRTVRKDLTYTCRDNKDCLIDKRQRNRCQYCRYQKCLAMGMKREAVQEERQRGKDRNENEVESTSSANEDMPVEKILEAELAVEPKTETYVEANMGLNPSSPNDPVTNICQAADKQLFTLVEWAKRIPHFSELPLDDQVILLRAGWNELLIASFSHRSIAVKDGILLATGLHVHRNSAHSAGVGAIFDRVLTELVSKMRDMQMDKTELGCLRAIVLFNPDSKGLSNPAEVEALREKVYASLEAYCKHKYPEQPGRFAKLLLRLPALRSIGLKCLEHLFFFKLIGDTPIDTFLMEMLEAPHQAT
Test: EMSA; EMSA essentially as Forman et al. 1992 and Shtutman et al. 1999; buffer, salt, pH and temperature not stated
Conditions: protein: ivt;ivt; tags: N-terminal flag;N-terminal myc; copies: 1;1; blunt (complement S6 printed; duplex implied)

B1: RARE3 mut (dsDNA)
DNA 1: CCGGCAGCTGCGATGACTGCTCCCTCCTTA
DNA 2: TAAGGAGGGAGCAGTCATCGCAGCTGCCGG
binding result: no binding
